# Assay results from patent publication US20250197488A1 (MABWELL SHANGHAI BIOSCIENCE, published 2025).
# Residue numbers refer to the chain shown, from its start.
# T1: IL-11 (Cat. 12225-HNCE, Sino Biological Inc.) (UniProt P20809 22-199, limits assumed)
# T1 sequence (looked up): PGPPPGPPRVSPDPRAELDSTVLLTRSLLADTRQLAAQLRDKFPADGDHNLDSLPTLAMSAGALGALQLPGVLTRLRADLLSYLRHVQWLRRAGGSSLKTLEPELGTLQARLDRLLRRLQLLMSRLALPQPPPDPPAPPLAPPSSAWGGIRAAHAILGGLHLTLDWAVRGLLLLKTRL
# T2: human IL-11 (AAH12506.1, Pro22-Leu199) (human, UniProt P20809 22-199)
# T2 construct: The range Pro22-Leu199 counts on AAH12506.1; The Octet runs say only 'human IL-11'; also called hIL-11
# T2 chain: T1 sequence (looked up) with H154L
# B1: hz18A10-VHm19 + hz18A10-VLm19 (antibody, human IgG1, kappa, V domains shown)
# VH: EVQLVQSGAEVKKPGASVKVSCKASGYTFTHYNMDWVRQAPGQGLEWMGTIYPGNADTSYNQKFKGRVTMTRDTSTSTVYMELSSLRSEDTAVYYCARGDLYALDYWGQGTLVTVSS
# VL: DIQMTQSPSSLSASVGDRVTITCKASQSVYRDVAWYQQKPGKAPKLLIYSASNRYTGVPSRFSGSGSGTDFTFTISSLQPEDIATYYCQHDYSSPYTFGQGTKLEIKR
# notes: named hz18A10m19; also called hz18A10m19
# B2: hz18A10-VH + hz18A10-VLm9 (antibody, V domains shown)
# VH: B1 VH with H31T, A56G
# VL: DIQMTQSPSSLSASVGDRVTITCKASQSVYSDVAWYQQKPGKAPKLLIYSASNRYTGVPSRFSGSGSGTDFTFTISSLQPEDIATYYCQHDYSSPYTFGQGTKLEIK
# notes: Constant regions not restated for this antibody
# B3: hz18A10-VHm3 + hz18A10-VLm19 (antibody, V domains shown)
# VH: B1 VH with H31T, N33D, A56G
# VL: B2 VL with S31R
# notes: as for B2
# B4: hz18A10-VHm1 + hz18A10-VL (antibody, V domains shown)
# VH: B1 VH with H31T, A56G, Y102H, A103F
# VL: B2 VL with Y30S, S31N
# notes: as for B2
# B5: hz18A10-VH + hz18A10-VLm3 (antibody, V domains shown)
# VH: B1 VH with H31T, A56G
# VL: B2 VL with Q27H, Y30S, S31N
# notes: as for B2
# B6: hz18A10-VHm4 + hz18A10-VLm9 (antibody, V domains shown)
# VH: B1 VH with H31T, M34I, A56G
# VL: B2 VL
# notes: as for B2
# B7: hz18A10-VH + hz18A10-VLm12 (antibody, V domains shown)
# VH: B1 VH with H31T, A56G
# VL: B2 VL with Y30S, S31N, N53S
# notes: as for B2
# B8: hz18A10-VHm2 + hz18A10-VL (antibody, V domains shown)
# VH: B1 VH with H31T, A56G, Y102H, A103Y
# VL: B2 VL with Y30S, S31N
# notes: as for B2
# B9: hz18A10-VHm1 + hz18A10-VLm15 (antibody, V domains shown)
# VH: B1 VH with H31T, A56G, Y102H, A103F
# VL: B2 VL with Y30S, S31N, S50R, N53S
# notes: as for B2
# B10: hz18A10-VHm3 + hz18A10-VLm9 (antibody, V domains shown)
# VH: B1 VH with H31T, N33D, A56G
# VL: B2 VL
# notes: as for B2
# B11: hz18A10-VHm2 + hz18A10-VLm11 (antibody, V domains shown)
# VH: B1 VH with H31T, A56G, Y102H, A103Y
# VL: B2 VL with Y30S, S31N, S50R
# notes: as for B2
# B12: hz18A10-VH + hz18A10-VLm16 (antibody, V domains shown)
# VH: B1 VH with H31T, A56G
# VL: B2 VL with Y30S, S31N, S50R, N53R, T56P
# notes: as for B2
# B13: hz18A10-VH + hz18A10-VLm17 (antibody, V domains shown)
# VH: B1 VH with H31T, A56G
# VL: B2 VL with S31R, S50R
# notes: as for B2
# B14: hz18A10-VH + hz18A10-VLm18 (antibody, V domains shown)
# VH: B1 VH with H31T, A56G
# VL: B2 VL with S31R, S50R, N53S
# notes: as for B2
# B15: hz18A10-VHm1 + hz18A10-VLm11 (antibody, V domains shown)
# VH: B1 VH with H31T, A56G, Y102H, A103F
# VL: B2 VL with Y30S, S31N, S50R
# notes: as for B2
# B16: hz18A10-VHm1 + hz18A10-VLm7 (antibody, V domains shown)
# VH: B1 VH with H31T, A56G, Y102H, A103F
# VL: B2 VL with Y30F, S31R
# notes: as for B2
# B17: hz18A10-VH + hz18A10-VLm1 (antibody, V domains shown)
# VH: B1 VH with H31T, A56G
# VL: B2 VL with Q27K, Y30S, S31N
# notes: as for B2
# B18: hz18A10-VH + hz18A10-VLm11 (antibody, V domains shown)
# VH: B1 VH with H31T, A56G
# VL: B2 VL with Y30S, S31N, S50R
# notes: as for B2
# B19: hz18A10-VHm1 + hz18A10-VLm14 (antibody, V domains shown)
# VH: B1 VH with H31T, A56G, Y102H, A103F
# VL: B2 VL with Y30S, S31N, S50R, N53R
# notes: as for B2
# B20: hz18A10-VH + hz18A10-VLm6 (antibody, V domains shown)
# VH: B1 VH with H31T, A56G
# VL: B2 VL with Y30F, S31H
# notes: as for B2
# B21: hz18A10-VHm2 + hz18A10-VLm9 (antibody, V domains shown)
# VH: B1 VH with H31T, A56G, Y102H, A103Y
# VL: B2 VL
# notes: as for B2
# B22: hz18A10-VH + hz18A10-VLm5 (antibody, V domains shown)
# VH: B1 VH with H31T, A56G
# VL: B2 VL with Y30S, S31N, V33I
# notes: as for B2
# B23: hz18A10-VH + hz18A10-VLm13 (antibody, V domains shown)
# VH: B1 VH with H31T, A56G
# VL: B2 VL with Y30S, S31N, N53R
# notes: as for B2
# B24: hz18A10-VH + hz18A10-VLm4 (antibody, V domains shown)
# VH: B1 VH with H31T, A56G
# VL: B2 VL with S28F, Y30S, S31N
# notes: as for B2
# B25: hz18A10-VH + hz18A10-VLm8 (antibody, V domains shown)
# VH: B1 VH with H31T, A56G
# VL: B2 VL with S31H
# notes: as for B2
# B26: hz18A10-VH + hz18A10-VLm10 (antibody, V domains shown)
# VH: B1 VH with H31T, A56G
# VL: B2 VL with Y30S, S31N, V33L
# notes: as for B2
# B27: hz18A10-VH + hz18A10-VLm2 (antibody, V domains shown)
# VH: B1 VH with H31T, A56G
# VL: B2 VL with Q27Y, Y30S, S31N
# notes: as for B2
# B28: hz18A10-VHm4 + hz18A10-VLm18 (antibody, V domains shown)
# VH: B1 VH with H31T, M34I, A56G
# VL: B2 VL with S31R, S50R, N53S
# notes: as for B2
# B29: hz18A10-VHm1 + hz18A10-VLm9 (antibody, V domains shown)
# VH: B1 VH with H31T, A56G, Y102H, A103F
# VL: B2 VL
# notes: as for B2
# Target: T1, IL-11 (Cat. 12225-HNCE, Sino Biological …)
# Test: cell-based or functional assay
row,Binder,"Blocking activity (IC50), STAT3-luc reporter [mg/L]"
1,B1,0.13
2,B2,1.25
3,B3,0.262
4,B4,10.9
5,B5,15.2
6,B6,2.23
7,B7,11.6
8,B8,11.6
9,B9,1.88
10,B10,0.248
11,B11,9.46
12,B12,9.89
13,B13,3.47
14,B14,4.38
15,B15,7.4
16,B16,13.1
17,B17,19.3
18,B18,4.07
19,B19,9.68
20,B20,2.6
21,B21,13.9
22,B22,18.1
23,B23,14.2
24,B24,16.4
25,B25,3.12
26,B26,12.7
27,B27,17.4
28,B28,1.94
29,B29,11.1

# Target: T2, human IL-11 (AAH12506.1, Pro22-Leu199)
# Test: BLI (Octet), antibody captured, human IL-11 in solution
# Outline: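 Antibodies, either purified or as hybridoma supernatant and diluted in HBS-EP+ buffer, were loaded onto anti-mouse IgG Fc (AMC) or anti-human Fc (AHC) biosensors in a Fortebio Octet QKe System for bio-layer interferometry. Human IL-11 in HBS-EP+ buffer was then passed over the sensors at 300 nM, with association and dissociation each lasting 300 seconds. After blank subtraction, the curves were fitted to a 1:1 Langmuir binding model to obtain kon, koff and Kd.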
Binder,Kd [nM],koff [s⁻¹],kon [M⁻¹ s⁻¹]
B1,0.101,0.0001,993000
B2,0.54,0.000463,859000
B3,0.683,0.000652,954000
B4,2.17,0.00139,640000
B5,3.94,0.00277,704000
B6,0.488,0.000496,1.02e+06
B7,3.54,0.00265,750000
B8,2.29,0.00158,692000
B9,0.585,0.000265,453000
B10,0.0959,9.7e-05,1.01e+06
B11,1.01,0.000317,314000
B12,1.97,0.000938,699000
B13,0.45,0.000326,725000
B14,0.419,0.0003,716000
B15,0.825,0.000287,348000
B16,2.4,0.0013,544000
B17,4.61,0.00331,718000
B18,1.8,0.00134,747000
B19,1.03,0.000341,330000
B20,0.877,0.000794,905000
B21,2.33,0.000941,404000
B22,4.09,0.00281,688000
B23,3.99,0.00268,673000
B24,3.12,0.00237,760000
B25,0.803,0.000746,929000
B26,4.06,0.00295,727000
B27,2.3,0.00185,806000
B28,0.322,0.000266,826000
B29,2.01,0.000963,479000
